From paper PMC2173242 (The Journal of Cell Biology, 2002)

Target: Human recombinant His6-tagged Hsp70 (human, UniProt P0DMV8 1-641)
Test: pull-down

Chain of Human recombinant His6-tagged Hsp70 (P0DMV8 whole entry): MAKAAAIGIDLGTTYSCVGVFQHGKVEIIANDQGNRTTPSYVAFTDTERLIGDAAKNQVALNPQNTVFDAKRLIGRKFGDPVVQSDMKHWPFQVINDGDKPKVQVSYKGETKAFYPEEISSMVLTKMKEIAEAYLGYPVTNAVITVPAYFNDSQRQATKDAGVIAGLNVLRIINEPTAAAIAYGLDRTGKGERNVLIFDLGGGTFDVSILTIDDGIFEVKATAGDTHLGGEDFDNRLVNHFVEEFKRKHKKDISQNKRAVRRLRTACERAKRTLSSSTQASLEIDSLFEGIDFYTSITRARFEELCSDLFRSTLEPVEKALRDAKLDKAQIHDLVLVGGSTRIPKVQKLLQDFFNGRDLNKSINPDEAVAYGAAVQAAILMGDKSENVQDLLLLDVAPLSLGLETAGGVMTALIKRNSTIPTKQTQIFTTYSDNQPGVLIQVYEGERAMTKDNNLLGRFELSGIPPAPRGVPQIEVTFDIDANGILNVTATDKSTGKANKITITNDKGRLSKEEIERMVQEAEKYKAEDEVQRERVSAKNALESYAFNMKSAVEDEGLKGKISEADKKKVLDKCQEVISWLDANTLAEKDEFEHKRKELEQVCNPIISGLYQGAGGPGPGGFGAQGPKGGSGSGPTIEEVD

ka (saturation of the effect of peptide C on binding of Hsp70-ADP to GST-CD40): ~30 µM
B1: Peptide C (peptide)
peptide: GCEVFGLGWRSYKH
